{"source": "paper PMC9482650", "about": "“Quantitative fragmentomics allow affinity mapping of interactomes” (Nature Communications, 2022)", "assay_in_all_cases": "holdup assay", "design_in_all_cases": "key: below the threshold = too weak to quantify, mostly under pKd 3.1 to 4", "key": {"[1]": {"target": "GRIP2_6, Q9C0E4", "sequence (Q9C0E4 648-740)": "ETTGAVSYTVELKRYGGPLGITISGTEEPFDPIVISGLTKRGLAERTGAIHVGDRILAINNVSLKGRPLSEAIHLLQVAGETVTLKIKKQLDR"}, "[2]": {"target": "T1, DLG3_3, Q92796", "T1 sequence (Q92796 374-475, limits assumed, looked up)": "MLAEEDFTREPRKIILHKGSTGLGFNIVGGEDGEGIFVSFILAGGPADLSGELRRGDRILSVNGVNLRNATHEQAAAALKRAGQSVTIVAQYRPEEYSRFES"}, "[3]": {"target": "DLG4_3, P78352", "sequence (P78352 306-403)": "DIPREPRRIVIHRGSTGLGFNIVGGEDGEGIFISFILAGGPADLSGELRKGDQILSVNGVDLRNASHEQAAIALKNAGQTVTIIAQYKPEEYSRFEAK"}, "[4]": {"target": "T2, PCLO, Q9Y6V0", "T2 sequence (Q9Y6V0 4491-4600, limits assumed, looked up)": "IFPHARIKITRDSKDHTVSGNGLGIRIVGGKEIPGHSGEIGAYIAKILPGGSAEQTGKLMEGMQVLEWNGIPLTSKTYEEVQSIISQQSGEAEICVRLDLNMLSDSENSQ"}, "[5]": {"target": "T3, SYNJ2BP, P57105", "T3 sequence (P57105 8-110, limits assumed, looked up)": "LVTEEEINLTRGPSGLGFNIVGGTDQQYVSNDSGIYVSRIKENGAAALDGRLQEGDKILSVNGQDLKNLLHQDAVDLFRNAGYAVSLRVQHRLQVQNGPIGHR"}, "[6]": {"target": "NHERF2_2, Q15599", "sequence (Q15599 142-238)": "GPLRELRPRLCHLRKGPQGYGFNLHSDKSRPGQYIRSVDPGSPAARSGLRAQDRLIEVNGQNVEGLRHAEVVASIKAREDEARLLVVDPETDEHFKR"}, "[7]": {"target": "T4, NHERF3_4, Q5T2W1", "T4 sequence (Q5T2W1 373-468, limits assumed, looked up)": "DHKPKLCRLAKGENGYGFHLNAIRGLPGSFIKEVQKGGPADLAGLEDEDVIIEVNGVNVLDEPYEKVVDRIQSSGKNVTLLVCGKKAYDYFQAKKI"}, "[8]": {"target": "Inadl_5, Q8NI35", "sequence (Q8NI35 673-780)": "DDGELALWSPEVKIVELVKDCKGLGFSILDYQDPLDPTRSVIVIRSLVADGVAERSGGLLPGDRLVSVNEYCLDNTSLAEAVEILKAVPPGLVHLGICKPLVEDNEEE"}, "[9]": {"target": "Inadl_6, Q8NI35", "sequence (Q8NI35 1058-1167)": "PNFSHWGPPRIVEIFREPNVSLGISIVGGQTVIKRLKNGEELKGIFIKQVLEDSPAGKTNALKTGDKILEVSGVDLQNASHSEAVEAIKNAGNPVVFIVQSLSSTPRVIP"}, "[10]": {"target": "T5, DLG3_1, Q92796", "T5 sequence (Q92796 125-227, limits assumed, looked up)": "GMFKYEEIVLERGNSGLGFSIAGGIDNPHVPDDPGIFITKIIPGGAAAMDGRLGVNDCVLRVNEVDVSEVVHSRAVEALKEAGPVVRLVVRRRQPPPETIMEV"}, "[11]": {"target": "Inadl_1, Q8NI35", "sequence (Q8NI35 113-229)": "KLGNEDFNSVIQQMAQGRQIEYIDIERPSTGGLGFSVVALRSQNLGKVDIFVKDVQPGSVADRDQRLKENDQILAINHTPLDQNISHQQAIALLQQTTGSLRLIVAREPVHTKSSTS"}, "[12]": {"target": "GORASP2, Q9H8Y8"}, "[13]": {"target": "DLG1_1, Q12959"}, "[14]": {"target": "MAGI1_2, Q96QZ7", "sequence (Q96QZ7 456-580)": "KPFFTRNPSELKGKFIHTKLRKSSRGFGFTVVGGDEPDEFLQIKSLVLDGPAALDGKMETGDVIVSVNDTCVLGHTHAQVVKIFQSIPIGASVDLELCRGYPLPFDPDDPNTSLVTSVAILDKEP"}, "[15]": {"target": "Inadl_10, Q8NI35", "sequence (Q8NI35 1673-1763)": "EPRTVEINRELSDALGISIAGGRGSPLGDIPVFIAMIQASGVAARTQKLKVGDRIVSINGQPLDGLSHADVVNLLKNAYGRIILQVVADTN"}, "[16]": {"target": "T6, NHERF3_1, Q5T2W1", "T6 sequence (Q5T2W1 4-100, limits assumed, looked up)": "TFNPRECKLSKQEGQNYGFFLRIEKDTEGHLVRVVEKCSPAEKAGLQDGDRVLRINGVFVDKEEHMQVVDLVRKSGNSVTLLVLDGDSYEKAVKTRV"}, "[17]": {"target": "T7, ARHGEF11, O15085", "T7 sequence (O15085 42-136, limits assumed, looked up)": "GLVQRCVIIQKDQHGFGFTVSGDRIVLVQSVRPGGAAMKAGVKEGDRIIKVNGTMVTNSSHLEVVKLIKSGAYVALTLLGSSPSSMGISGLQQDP"}, "[18]": {"target": "DLG1_3, Q12959"}, "[19]": {"target": "GRASP, Q7Z6J2", "sequence (Q7Z6J2 96-193)": "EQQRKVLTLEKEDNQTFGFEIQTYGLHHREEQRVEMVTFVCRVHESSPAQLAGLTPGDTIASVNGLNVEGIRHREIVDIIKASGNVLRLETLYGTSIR"}, "[20]": {"target": "T8, LIN7A, O14910", "T8 sequence (O14910 103-200, limits assumed, looked up)": "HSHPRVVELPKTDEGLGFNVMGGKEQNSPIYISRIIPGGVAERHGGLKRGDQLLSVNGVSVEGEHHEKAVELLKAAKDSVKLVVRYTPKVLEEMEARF"}, "[21]": {"target": "T9, APBA2_1, Q99767", "T9 sequence (Q99767 563-664, limits assumed, looked up)": "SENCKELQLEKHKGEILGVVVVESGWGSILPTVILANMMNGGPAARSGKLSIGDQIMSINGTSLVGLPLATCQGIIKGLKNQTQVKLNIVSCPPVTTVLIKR"}, "[22]": {"target": "T10, RAPGEF6, Q8TEU7", "T10 sequence (Q8TEU7 525-625, limits assumed, looked up)": "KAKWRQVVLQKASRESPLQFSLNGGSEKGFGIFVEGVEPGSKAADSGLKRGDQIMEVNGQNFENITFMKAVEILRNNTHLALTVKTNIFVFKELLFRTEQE"}, "[23]": {"target": "T11, DFNB31_2, Q9P202", "T11 sequence (Q9P202 274-371, limits assumed, looked up)": "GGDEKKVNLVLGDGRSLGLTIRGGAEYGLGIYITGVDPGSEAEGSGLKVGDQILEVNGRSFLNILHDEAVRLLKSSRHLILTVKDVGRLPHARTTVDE"}, "[24]": {"target": "FRMPD4, Q14CM0", "sequence (Q14CM0 67-160)": "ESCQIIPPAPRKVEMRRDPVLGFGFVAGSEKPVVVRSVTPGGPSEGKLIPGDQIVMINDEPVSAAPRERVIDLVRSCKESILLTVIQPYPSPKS"}, "[25]": {"target": "T12, PDZRN3_1, Q9UPQ7", "T12 sequence (Q9UPQ7 244-349, limits assumed, looked up)": "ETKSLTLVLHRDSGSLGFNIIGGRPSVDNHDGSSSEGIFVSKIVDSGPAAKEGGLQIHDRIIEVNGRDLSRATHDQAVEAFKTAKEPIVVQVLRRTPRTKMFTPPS"}, "[26]": {"conditions": "plain residues with an end cap or a label only (N-terminal biotin on a linker: ttds)"}, "[27]": {"conditions": "plain residues with an end cap or a label only (N-terminal biotin on a linker: ahx)"}, "[28]": {"conditions": "plain residues with an end cap or a label only (N-terminal biotin on a linker: gsgsgs; C-terminal amide)"}}}
{"binder": "IYVPEAQTRL", "note": "[DLGAP4, Q9Y2H0]", "values": [{"measurement": "pKd", "setting": "[1]; [26]", "result": "below the threshold"}, {"measurement": "pKd", "setting": "[2]; [26]", "result": "below the threshold"}, {"measurement": "pKd", "setting": "[3]; [26]", "result": "below the threshold"}, {"measurement": "pKd", "setting": "[4]; [26]", "result": "below the threshold"}, {"measurement": "pKd", "setting": "[5]; [26]", "result": "below the threshold"}, {"measurement": "pKd", "setting": "[6]; [26]", "result": 4.84}, {"measurement": "pKd", "setting": "[7]; [26]", "result": 3.87}, {"measurement": "pKd", "setting": "[8]; [26]", "result": "below the threshold"}, {"measurement": "pKd", "setting": "[9]; [26]", "result": "below the threshold"}, {"measurement": "pKd", "setting": "[10]; [26]", "result": "below the threshold"}, {"measurement": "pKd", "setting": "[11]; [26]", "result": "below the threshold"}, {"measurement": "pKd", "setting": "[12]; [26]", "result": "below the threshold"}, {"measurement": "pKd", "setting": "[13]; [26]", "result": "below the threshold"}, {"measurement": "pKd", "setting": "[14]; [26]", "result": "below the threshold"}, {"measurement": "pKd", "setting": "[15]; [26]", "result": "below the threshold"}, {"measurement": "pKd", "setting": "[16]; [26]", "result": 5.25}, {"measurement": "pKd", "setting": "[17]; [26]", "result": 3.7}, {"measurement": "pKd", "setting": "[18]; [26]", "result": "below the threshold"}, {"measurement": "pKd", "setting": "[19]; [26]", "result": 4.2}, {"measurement": "pKd", "setting": "[20]; [26]", "result": "below the threshold"}, {"measurement": "pKd", "setting": "[21]; [26]", "result": "below the threshold"}, {"measurement": "pKd", "setting": "[22]; [26]", "result": "below the threshold"}, {"measurement": "pKd", "setting": "[23]; [26]", "result": "below the threshold"}, {"measurement": "pKd", "setting": "[24]; [26]", "result": 4.25}, {"measurement": "pKd", "setting": "[25]; [26]", "result": 3.94}]}
{"binder": "HTHSYIETHV", "note": "[CNKSR2, Q8WXI2]", "values": [{"measurement": "pKd", "setting": "[1]; [27]", "result": "below the threshold"}, {"measurement": "pKd", "setting": "[2]; [27]", "result": 4.01}, {"measurement": "pKd", "setting": "[3]; [27]", "result": 3.74}, {"measurement": "pKd", "setting": "[4]; [27]", "result": "below the threshold"}, {"measurement": "pKd", "setting": "[5]; [27]", "result": 5.02}, {"measurement": "pKd", "setting": "[6]; [27]", "result": "below the threshold"}, {"measurement": "pKd", "setting": "[7]; [27]", "result": "below the threshold"}, {"measurement": "pKd", "setting": "[8]; [27]", "result": "below the threshold"}, {"measurement": "pKd", "setting": "[9]; [27]", "result": 4.22}, {"measurement": "pKd", "setting": "[10]; [27]", "result": 4.08}, {"measurement": "pKd", "setting": "[11]; [27]", "result": "below the threshold"}, {"measurement": "pKd", "setting": "[12]; [27]", "result": "below the threshold"}, {"measurement": "pKd", "setting": "[13]; [27]", "result": 4.62}, {"measurement": "pKd", "setting": "[14]; [27]", "result": 3.9}, {"measurement": "pKd", "setting": "[15]; [27]", "result": "below the threshold"}, {"measurement": "pKd", "setting": "[16]; [27]", "result": 5.14}, {"measurement": "pKd", "setting": "[17]; [27]", "result": "below the threshold"}, {"measurement": "pKd", "setting": "[18]; [27]", "result": 3.85}, {"measurement": "pKd", "setting": "[19]; [27]", "result": 3.47}, {"measurement": "pKd", "setting": "[20]; [27]", "result": "below the threshold"}, {"measurement": "pKd", "setting": "[21]; [27]", "result": "below the threshold"}, {"measurement": "pKd", "setting": "[22]; [27]", "result": "below the threshold"}, {"measurement": "pKd", "setting": "[23]; [27]", "result": 3.76}, {"measurement": "pKd", "setting": "[24]; [27]", "result": "below the threshold"}, {"measurement": "pKd", "setting": "[25]; [27]", "result": 3.8}]}
{"binder": "TLSLTDSSVDGIPPYR", "note": "[AXIN1_int, O15169]", "values": [{"measurement": "pKd", "setting": "[1]; [28]", "result": "below the threshold"}, {"measurement": "pKd", "setting": "[2]; [28]", "result": "below the threshold"}, {"measurement": "pKd", "setting": "[3]; [28]", "result": "below the threshold"}, {"measurement": "pKd", "setting": "[4]; [28]", "result": "below the threshold"}, {"measurement": "pKd", "setting": "[5]; [28]", "result": 4.52}, {"measurement": "pKd", "setting": "[6]; [28]", "result": "below the threshold"}, {"measurement": "pKd", "setting": "[7]; [28]", "result": "below the threshold"}, {"measurement": "pKd", "setting": "[8]; [28]", "result": "below the threshold"}, {"measurement": "pKd", "setting": "[9]; [28]", "result": "below the threshold"}, {"measurement": "pKd", "setting": "[10]; [28]", "result": "below the threshold"}, {"measurement": "pKd", "setting": "[11]; [28]", "result": "below the threshold"}, {"measurement": "pKd", "setting": "[12]; [28]", "result": "below the threshold"}, {"measurement": "pKd", "setting": "[13]; [28]", "result": "below the threshold"}, {"measurement": "pKd", "setting": "[14]; [28]", "result": "below the threshold"}, {"measurement": "pKd", "setting": "[15]; [28]", "result": "below the threshold"}, {"measurement": "pKd", "setting": "[16]; [28]", "result": "below the threshold"}, {"measurement": "pKd", "setting": "[17]; [28]", "result": "below the threshold"}, {"measurement": "pKd", "setting": "[18]; [28]", "result": "below the threshold"}, {"measurement": "pKd", "setting": "[19]; [28]", "result": "below the threshold"}, {"measurement": "pKd", "setting": "[20]; [28]", "result": "below the threshold"}, {"measurement": "pKd", "setting": "[21]; [28]", "result": "below the threshold"}, {"measurement": "pKd", "setting": "[22]; [28]", "result": "below the threshold"}, {"measurement": "pKd", "setting": "[23]; [28]", "result": "below the threshold"}, {"measurement": "pKd", "setting": "[24]; [28]", "result": "below the threshold"}, {"measurement": "pKd", "setting": "[25]; [28]", "result": "below the threshold"}]}
